Reference: paper PMC9652331, “Cryo-EM structures of human m6A writer complexes”

Molecular target: HAKAI;WTAP;VIRMA;ZC3H13 (1106-1668);METTL3;METTL14 (Homo sapiens;Homo sapiens;Homo …, UniProt Q75N03;Q15007;Q69YN4;Q5T200;Q86U44;Q9HCE5 …, |||||)
Test: s4U UV crosslinking MS; sites METTL3 F321; VIRMA P140, E1597, F1706; EMSA: 5 nM FAM-RNA, 20 mM HEPES pH 7.5, 100 mM KCl, 10% glycerol, 1 mM DTT, 25 C, 20 min; 8% native PAGE in 1x TBE at 4 C; Kd from loss of free RNA, Hill fit, n
Settings: protein: recombinant;recombinant;recombinant;recombinant;recombinant;recombinant, tags: untagged;N-6xHis;N-6xHis;N-Twin-Strep;N-GST-TEV, removed;N-6xHis-TEV

B1: s4U-ACTB-1 RNA (ssRNA)
RNA: GGCCCCUCCAUCGUCCACCGCAAAUGCUUCUAGGCGGACUAUGACUUAGUUGCGUUACACCCUUUCUUGACAAAACCUAACUUGCACAGAAAACA
modifications: 4-thiouridine (s4U); positions not given
- binding result: binds
